± gives the standard deviation of the averaged measurements.
system: Saccharomyces cerevisiae; assay: protein stability index of tFT-peptide fusion (C-terminal peptide) (PSI (0-1 scale)); higher = more stable (slower turnover); conditions: genetic background: wild type; temperature: 30 C
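Also: PSI is a weighted mean of sequencing reads over stability bins, variants kept only with over 10 reads, mCherry proximal and sfGFP distal, peptide attached via GGGS linker.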

Row | Sequence | protein stability index
1 | VGGRVCQSEGVE | 0.685 ± 0.0058
2 | VGGWGERGRGGS | 0.696 ± 0.015
3 | VGHRGVQAGGVG | 0.618 ± 0.016
4 | VGKTVKQLSLIS | 0.597 ± 0.039
5 | VGLAVWAAKLGR | 0.739 ± 0.018
6 | VGLEVGPLVGGE | 0.6921 ± 0.0029
7 | VGLGLSVGKKEI | 0.651 ± 0.098
8 | VGLLWEYVRLDG | 0.7079 ± 0.0036
9 | VGLTGFQHTEWG | 0.753 ± 0.027
10 | VGMGRAPGPDPA | 0.646 ± 0.0093
11 | VGPGRRGWEGAP | 0.663 ± 0.022
12 | VGPPWSISLSII | 0.636 ± 0.013
13 | VGQVVTCFMSDA | 0.678 ± 0.028
14 | VGSCGGGKVVVE | 0.6555 ± 0.00076
15 | VGSDICLGLCLL | 0.871 ± 0.02
16 | VGSKGCDGCNRA | 0.655 ± 0.047
17 | VGTAVVDRHGVR | 0.603 ± 0.045
18 | VGTVREVYCQGG | 0.678 ± 0.014
19 | VGVFRCLPGQVG | 0.677 ± 0.057
20 | VGVGDGLIRRSS | 0.7338 ± 0.004
21 | VGVLCWLFLGVG | 0.501 ± 0.008
22 | VGVWDGCLLGLG | 0.695 ± 0.028
23 | VGWAVNGSMVVG | 0.662 ± 0.021

Row | Sequence | protein stability index
24 | VGWCPLVGGSGQ | 0.753 ± 0.039
25 | VGYGEVSGGGRM | 0.732 ± 0.026
26 | VHFSSSCDYLIV | 0.653 ± 0.081
27 | VHGGKREGGGEG | 0.667 ± 0.039
28 | VHRFPPAPFCTP | 0.734 ± 0.047
29 | VHRPFDGFSRAG | 0.662 ± 0.011
30 | VHSMSRTFARPV | 0.683 ± 0.051
31 | VIASPALLLPLF | 0.642 ± 0.062
32 | VIDFAELGTVAH | 0.7301 ± 0.005
33 | VIDTGAGSILEI | 0.7 ± 0.042
34 | VIESRNEEGGRV | 0.727 ± 0.022
35 | VIFCFCSRSCFL | 0.643 ± 0.037
36 | VIGAGTGCVVVG | 0.72 ± 0.013
37 | VIMAEVLCVSNL | 0.508 ± 0.0071
38 | VIPREPSEPHTA | 0.639 ± 0.021
39 | VIVKNINKNTQI | 0.717 ± 0.038
40 | VKGKLGSGSYIH | 0.644 ± 0.022
41 | VKQFLICKNGRS | 0.728 ± 0.12
42 | VKSFRFPHPVWN | 0.682 ± 0.011
43 | VKWAIWGGMEWR | 0.667 ± 0.07
44 | VKWFRESRMVGA | 0.65 ± 0.027
45 | VLADIGSAGIGR | 0.711 ± 0.014
46 | VLCRSLAGCCFV | 0.709 ± 0.012

Row | Sequence | protein stability index
47 | VLFEARFSLRQS | 0.6768 ± 0.0044
48 | VLFPLPFPCVSF | 0.681 ± 0.06
49 | VLFPPGFPPGLL | 0.817 ± 0.04
50 | VLFPPLCLSFCF | 0.498 ± 0.044
51 | VLGASFTATYFQ | 0.749 ± 0.077
52 | VLGCSVIADSCR | 0.637 ± 0.053
53 | VLGDSASFWSCP | 0.765 ± 0.15
54 | VLGGGPSIRGLM | 0.655 ± 0.027
55 | VLGVGSFCLGVV | 0.622 ± 0.018
56 | VLGWRLLPTAGI | 0.703 ± 0.062
57 | VLILDVSFPRCD | 0.766 ± 0.18
58 | VLLLLYGMFRGR | 0.59 ± 0.0094
59 | VLLPEPCALRFT | 0.551 ± 0.029
60 | VLLRHRPKYACR | 0.645 ± 0.022
61 | VLLRRRSIWPLG | 0.72 ± 0.0063
62 | VLLRVSEQVSRV | 0.676 ± 0.1
63 | VLRFATIKRMYP | 0.661 ± 0.018
64 | VLRPFTPPSSRF | 0.723 ± 0.047
65 | VLSISINRGVRI | 0.664 ± 0.0039
66 | VLSRVSMSLGSP | 0.767 ± 0.16
67 | VLTGLLFRRPRS | 0.604 ± 0.0062
68 | VLVEWQTCRTRK | 0.656 ± 0.097
69 | VLVGRAGIVFLG | 0.573 ± 0.04

Row | Sequence | protein stability index
70 | VLVVRERGAVDG | 0.697 ± 0.1
71 | VLWVLDAFCFGG | 0.643 ± 0.0084
72 | VMGGWGCGVLRG | 0.731 ± 0.021
73 | VMNHYCRFPVST | 0.598 ± 0.023
74 | VMRRYVFPSGFF | 0.677 ± 0.023
75 | VMWVGGAAGPVV | 0.663 ± 0.037
76 | VNELYDNETTYV | 0.734 ± 0.035
77 | VPAPLPRTSPPS | 0.673 ± 0.053
78 | VPAYLVAARQYY | 0.655 ± 0.012
79 | VPFRLFSSYLSG | 0.641 ± 0.037
80 | VPGYLLIDFWWV | 0.5707 ± 0.001
81 | VPHLPATPPAPP | 0.646 ± 0.037
82 | VPLTKHENNFNE | 0.709 ± 0.018
83 | VPPASTSPGAFP | 0.6889 ± 0.003
84 | VPPLVPLHPPPP | 0.709 ± 0.047
85 | VPPPRYLPAFPA | 0.694 ± 0.0078
86 | VPPSCPRPPTAP | 0.676 ± 0.064
87 | VPQREWGGVRLG | 0.675 ± 0.017
88 | VPRMLSTPKAQP | 0.723 ± 0.01
89 | VPSRRLPLPPAS | 0.695 ± 0.0086
90 | VPVGSLLVGSVT | 0.528 ± 0.012
91 | VQASESGLRAGV | 0.686 ± 0.0092
92 | VQASFLPGGSVR | 0.7062 ± 0.0039

Row | Sequence | protein stability index
93 | VQGFYPVSAEGG | 0.674 ± 0.022
94 | VQVLLMFTWERE | 0.511 ± 0.016
95 | VRCAVVTMDLTL | 0.691 ± 0.05
96 | VRCCFGGRGAIA | 0.6461 ± 0.0016
97 | VRDVIGWGEEEY | 0.708 ± 0.017
98 | VREVTIGGGLGE | 0.707 ± 0.0087
99 | VRGTGRQLNKSM | 0.662 ± 0.054
100 | VRGVCLWGGVVG | 0.641 ± 0.099
101 | VRLELIRSKLSR | 0.701 ± 0.022
102 | VRLLGVGGGFTC | 0.701 ± 0.038
103 | VRLRLGLLAGWS | 0.633 ± 0.012
104 | VRLWLTLQQVDF | 0.686 ± 0.085
105 | VRMKAAIGNGAE | 0.6686 ± 0.0037
106 | VRNPPPLTRTRP | 0.687 ± 0.0097
107 | VRRFRYCLGFFR | 0.663 ± 0.059
108 | VRRGHEGCGLRY | 0.717 ± 0.025
109 | VRRGRQHLRYGR | 0.708 ± 0.045
110 | VRRSGMNIVVLP | 0.63872 ± 0.00027
111 | VRRSNKTIKRKK | 0.746 ± 0.1
112 | VRRVWYGSFSRL | 0.81 ± 0.012
113 | VRSFSFSALLAV | 0.58 ± 0.024
114 | VRSVSCPCCAHF | 0.7058 ± 0.0056
115 | VRVGVGGVSEFE | 0.67062 ± 0.00015

Row | Sequence | protein stability index
116 | VRVRGDPLVCPL | 0.592 ± 0.0096
117 | VRVSGVSVVRFW | 0.667 ± 0.012
118 | VRWGVGVGVGWD | 0.682 ± 0.057
119 | VSAPRLRVSCNP | 0.696 ± 0.014
120 | VSARRTLRFSFE | 0.685 ± 0.016
121 | VSCGGSARRASP | 0.704 ± 0.0078
122 | VSCLPFLDLMSW | 0.701 ± 0.012
123 | VSEKICNCLGKT | 0.657 ± 0.088
124 | VSGAAFMSSAFW | 0.753 ± 0.045
125 | VSGLKYSVLVGG | 0.555 ± 0.015
126 | VSLISCGGVYAG | 0.688 ± 0.015
127 | VSLVDRFVLAIV | 0.5619 ± 0.0011
128 | VSPGPSPPPPPR | 0.622 ± 0.072
129 | VSPLSHPPSPAP | 0.702 ± 0.021
130 | VSRPRSLLVPNF | 0.67 ± 0.07
131 | VSSAGRPRGFLP | 0.671 ± 0.01
132 | VSSELLFLVVRF | 0.543 ± 0.0089
133 | VSTVFGCDICST | 0.701 ± 0.034
134 | VSVGEDGNRPTC | 0.645 ± 0.071
135 | VSVGGVWGQCVA | 0.6618 ± 0.0047
136 | VSVGLGRCSIFW | 0.7217 ± 0.0048
137 | VTAIVLSVLSGC | 0.556 ± 0.022
138 | VTEGGGGGKGRG | 0.6917 ± 0.0064

Row | Sequence | protein stability index
139 | VTGPLSSDSSFT | 0.672 ± 0.017
140 | VTGTQGELGSFV | 0.689 ± 0.11
141 | VTIDETMSKGIN | 0.698 ± 0.045
142 | VTSRSFYRVSPL | 0.68 ± 0.14
143 | VTSTVPRFPQFT | 0.667 ± 0.014
144 | VTTKMQVAGSRK | 0.6377 ± 0.00065
145 | VVAGCLWGEYAT | 0.702 ± 0.17
146 | VVAPETTPFSPR | 0.7193 ± 0.007
147 | VVCLGGVVLPRV | 0.65788 ± 0.00012
148 | VVEPEVCLPSMR | 0.6942 ± 0.0032
149 | VVFFPVLSYFFR | 0.649 ± 0.064
150 | VVFQSLPCLSPP | 0.758 ± 0.037
151 | VVGAGDWRWGVW | 0.78884 ± 0.00041
152 | VVGAIVILRGLR | 0.632 ± 0.018
153 | VVGALRFSDLFK | 0.73 ± 0.042
154 | VVGAVFFGCRLL | 0.6 ± 0.15
155 | VVGGVLRFLLLW | 0.599 ± 0.013
156 | VVGPVLTCAVRF | 0.617 ± 0.076
157 | VVHSRSTPAHPH | 0.679 ± 0.12
158 | VVLGESSGGVGV | 0.643 ± 0.097
159 | VVPSRCCQRLRK | 0.716 ± 0.035
160 | VVRLRCSVGWCS | 0.575 ± 0.011

From the supplement of paper PMC10724198
